Results from patent US20250128187A1.

Molecular target: streptavidin immobilized on membrane (streptavidin modified membrane prepared according to FIG. 10) (Streptomyces avidinii) (UniProt P22629)
Test: depletion from solution; 0.0055 mL streptavidin membrane incubated in 0.4 mL of 1 mg/mL biotin-conjugate for 24 hours

Chain of streptavidin immobilized on membrane (streptavidin modified membrane prepared according to FIG. 10) (Streptomyces avidinii) (P22629 37-163 limits assumed): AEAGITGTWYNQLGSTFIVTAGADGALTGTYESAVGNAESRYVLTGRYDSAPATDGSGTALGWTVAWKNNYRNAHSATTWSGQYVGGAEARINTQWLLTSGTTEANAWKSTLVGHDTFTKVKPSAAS

Biotin-BSA (from UniProt P02769 25-607)
Amount Immobilized (mg biotin-conjugate/mL membrane) (mg biotin-conjugate/mL membrane): 38.6

Biotin-Mal 1
Amount Immobilized (mg biotin-conjugate/mL membrane) (mg biotin-conjugate/mL membrane): 9.71
